In US20180298404A1:

What was measured:
[1] = biological target: Mamu-E*02:04, single transfectant (rhesus macaque); assay: cell-based or functional assay
[2] = biological target: Mamu-E*02:20, single transfectant (rhesus macaque); assay: cell-based or functional assay

| Substance | peptide dose pulsed on the transfectant that triggers CD8+ T cells (ICS) [1] | peptide dose pulsed on the transfectant that triggers CD8+ T cells (ICS) [2] |
| --- | --- | --- |
| SIVgag482-490 optimal 9mer peptide | < 1 nM | < 1 nM |
| SIVgag276-284 optimal 9mer peptide | < 1 nM | < 1 nM |
| SIVgag476-484 optimal 9mer peptide | < 1 nM | < 1 nM |
| SIVgag259-267 optimal 9mer peptide | < 1 nM | < 1 nM |
